Substitutions are numbered along the chain they refer to.

Sequences and labels used below:
B1: 4R.N8 (antibody, V domains shown)
VH: EVQLLESGGGLVQPGGSLRLSCAASGFTFSRHAMAWVRQAPGKGLEWVSAITMSGRSIYYADSVKGRFTISRDNSKNTLYLQMNSLRAEDTAVYYCARVHRAFDYWGQGTLVTVSS
VL: QSVLTQPPSASGTPGQRVTISCSGSPLFPDSGSFNWYQQLPGTAPKLLIYADSHRPSGVPDRFSGSKSGTSASLAISGLRSEDEADYYCGTWDYSLSRYVLGGGTKLTVLG
B2: 4R.N2 (antibody, V domains shown)
VH: B1 VH with M53A, A61G
VL: B1 VL with R98A
B3: 5R65.39 (antibody, V domains shown)
VH: QVQLVQSGAEVKKPGSSVKVSCKASGYTFTSYWINWVRQAPGQGLEWIGHIYPNKNENYYNHKFKDKATLTVDKSTNTAYMELSSLRSEDTAVYYCTREFYGRSRYSAMDYWGQGTTLTVSS
VL: DIQMTQSPSTLSASVGDRVTITCKASQNVGTAVAWYQQKPGKAPKLLIYWASTRHTGVPDRFSGSGSGTDFTLTISSLQPDDFATYYCQQFGRYPYTFGSGTKVEVK
B4: 5R65.7 (antibody, V domains shown)
VH: B3 VH with S104Q, R105Y, S107Q
VL: B3 VL
B5: 5R65 (antibody, V domains shown)
VH: B3 VH with E99D, F100Y, R105Y, S107Y
VL: B3 VL
B6: 5R65.14 (antibody, V domains shown)
VH: B3 VH with F100H, S104P, R105Y, S107N
VL: B3 VL
B7: 5R65.18 (antibody, V domains shown)
VH: B3 VH with F100Y, S104T, R105Y
VL: B3 VL
B8: 5R65.10 (antibody, V domains shown)
VH: B3 VH with F100Y, R105Y, S107A
VL: B3 VL

One assay concerns the target sIL-4Rα (human). As to the kind of experiment: BLI.
As usually defined, the Kd is a measure of binding affinity in units of concentration. A low value points to tighter binding. B1: the Kd amounted to 0.0802 nM.
B2 showed a Kd of 0.108 nM.

In a further assay the target is sIL-4Rα (human).
sIL-4Rα (human), sequence (chain, as listed by the source): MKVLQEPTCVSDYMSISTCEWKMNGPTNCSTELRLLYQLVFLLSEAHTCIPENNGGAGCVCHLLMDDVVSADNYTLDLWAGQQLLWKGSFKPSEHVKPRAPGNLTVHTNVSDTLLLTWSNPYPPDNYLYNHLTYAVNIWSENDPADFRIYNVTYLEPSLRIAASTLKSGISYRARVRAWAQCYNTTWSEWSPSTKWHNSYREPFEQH
Assay: not given
As to B3, the binding result was “no binding”.
Still for that read-out and setting: as for B4, the entry is “no binding”; as for B5, “no binding”.
For the molecule B6, the binding result is “no binding”.
The same measure, in the same setting: as for B7, the entry is “no binding”; as for B8, “no binding”.

The record behind these values is patent publication US12747297 (dated 2026).
